Test results from the supplement of paper PMC9170038.

System: MS2 coat protein
Assay: apparent KD of MS2 coat protein; designed switch direction (-1 OFF switch, 1 ON switch): -1; higher = weaker reporter binding
Method in brief: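 Apparent KD, taken as the median over clusters for each design, was obtained by curve-fitting normalised cluster fluorescence. Designed RNA switches had been transcribed on Illumina chips by stalled E. coli RNA polymerase and titrated with SNAP-549-labelled MS2 coat protein, doubling from 0.7 or 1.5 nM to 3 µM.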

[1] = input ligand: microRNA oligo, concentration not stated
[2] = Eterna round: R95, input ligand: FMN 200 uM
[3] = Eterna round: R95, input ligand: microRNA oligo, concentration not stated
[4] = Eterna round: R95, input ligand: none

| Sequence | apparent KD of MS2 coat protein [1] [nM] | apparent KD of MS2 coat protein (input ligand: FMN 200 uM) [nM] | apparent KD of MS2 coat protein (input ligand: none) [nM] | apparent KD of MS2 coat protein [2] [nM] | apparent KD of MS2 coat protein [3] [nM] | apparent KD of MS2 coat protein [4] [nM] |
| --- | --- | --- | --- | --- | --- | --- |
| AUUUAAUUUAAUAAGAUCACAUGAGGAUCACCCAUGUAUAUAUAGGAUAUCAGCUCGUGUAGAGCUGAGAAGGAUAUAUACAUG [ExNG3/8-A3] (Eterna round: R96, puzzle: Exclusion NG 3) | 15.4 | – | – | – | – | – |
| AUUUAAUUUAAUAAGAUCACAUGAGGAUCACCCAUGUAUAUAUAGGAUAUCAGCUCGUUUAGAGCUGAGAAGGAUAUAUACAUG [ExNG3/8-A2] (Eterna round: R96, puzzle: Exclusion NG 3) | 20.2 | 22.6 | 36.6 | – | – | – |
| AUUUAAUUUAAUAAGAUCACAUGAGGAUCACCCAUGUAUAUAUAGGAUAUCAGCUCGUUUAGAGCUGAGAAGGAUAUAUACUAU [ExNG3/7-B2] (Eterna round: R96, puzzle: Exclusion NG 3) | 237 | 190 | 278 | – | – | – |
| AUUUAGAGAGGAUAUAUAUUGUGAAACAUGAGGAUCACCCAUGUAAUAAUAUGGAUGUAAAUAGAAGGCUCAUUUU [Mat - Exclusion 5 - JL mod - D10] (puzzle: Exclusion 5) | – | – | – | 40.2 | 37.4 | 41.8 |
| AUUUAGUCAGGAUAUUAGUAGUAAAUAAAUAAAAUUAUUACUGAGAAGGGACAUGAGGAUCACCCAUGUGUCUA [Salish 062 v8] (Eterna round: R97, puzzle: Exclusion 4) | – | 44.4 | 24.9 | – | – | – |
| AUUUAUGGAGGAUAUACUUGAGGAUCACCCAAGUGGAGUCCCUUUUGGGCGGUAAAUAGUAGAAGGCCGUCUUA [jl-ex3-4.48 ViennaUCT mod] (Eterna round: R97, puzzle: Exclusion 3) | – | 20.9 | 16.3 | – | – | – |
| AUUUAUGUUGAGGAUAUGCGAAUAAGUAUAGUUGCAGAAGGCGACACAUGAGGAUCACCCAUGUUCAUGGACCC [LRO-Ex6-02] (puzzle: Exclusion 6) | – | – | – | 181 | 81.5 | 127 |
| AUUUAUGUUGAGGAUAUGCUAAAAUGUAUAGUUGCAGAAGGCGACACAUGAGGAUCACCCAUGUUCAUGGAAUU [LRO-Ex6-01] (puzzle: Exclusion 6) | – | – | – | – | 31.3 | – |
| AUUUGCUCGUCUACUCAAAACAUGAGGAUCACCCAUGUCGGAUUGGAUCCUACCCAGUCAAGACCAUACUCCUCGAC [Eternabot (Original) Solution 39] (Eterna round: R97, puzzle: Sensor, turn-off variant 1) | – | 342 | 344 | – | – | – |
| AUUUUAUAUGAAGGAUAUACUUAACAUGAGGAUCACCCAUGUGGUGUUGUGAGUGAGUGAGUUUAGUAGAAGGUCAAGUAUUUU [JMF's solution 55] (Eterna round: R96, puzzle: Exclusion NG 2) | 284 | 724 | 396 | – | – | – |
| AUUUUAUAUGAAGGAUAUACUUAACAUGAGGAUCACCCAUGUGGUGUUGUGAGUGAGUGAGUUUAGUAGAAGGUCAAUGAUUUU [JMF's solution 76] (Eterna round: R96, puzzle: Exclusion NG 2) | 527 | 828 | 327 | – | – | – |
| AUUUUAUAUGAAGGAUAUACUUAACAUGAGGAUCACCCAUGUGGUGUUGUGAGUGAGUGAGUUUAGUAGAAGGUCAAUUCUUUU [JMF's solution 98] (Eterna round: R96, puzzle: Exclusion NG 2) | 185 | 240 | 288 | – | – | – |
| AUUUUGUCAGGAUAUGAUUAGUAGGAUGAGAGUGCUACUACUUAGAAGGGACAUGAGGAUCACCCAUGUAUUCC [Bring Us a Shrubbery-07] (puzzle: Exclusion 4) | – | – | – | – | 14.7 | – |
| AUUUUGUCAGGAUAUUGUUAGUUUAGUUGUUUGUAUUAGUUCGAGAAGGGACAUGAGGAUCACCCAUGUGAUUA [Ex4 #73] (Eterna round: R97, puzzle: Exclusion 4) | – | 148 | 92.2 | – | – | – |
| AUUUUGUGAGGAUAUUAGUAGUAAAUAAAUAAAAUUAUUACUGAGAAGGCACAUGAGGAUCACCCAUGUUCCUA [Salish 062 v7] (Eterna round: R97, puzzle: Exclusion 4) | – | 193 | 19 | – | – | – |
| CAAAACAGAGGAUAUACAUUUCCUCACCGCCAAAUAGCGGAACAUGAGGAUCACCCAUGUAGAAGGCUGGAAAA [Usenqura] (puzzle: Exclusion 2) | – | – | – | 384 | 37.1 | 43.4 |
| CAAAAGGAAGGAUAUGCAUCGGGAGGUGCUCAGCAUCAAAUACAUGAGGAUCACCCAUGUAGAAGGUCUGAAAA [Edbile] (puzzle: Exclusion 2) | – | – | – | – | 31.5 | – |

| Sequence | apparent KD of MS2 coat protein [1] [nM] | apparent KD of MS2 coat protein (input ligand: FMN 200 uM) [nM] | apparent KD of MS2 coat protein (input ligand: none) [nM] | apparent KD of MS2 coat protein [2] [nM] | apparent KD of MS2 coat protein [3] [nM] | apparent KD of MS2 coat protein [4] [nM] |
| --- | --- | --- | --- | --- | --- | --- |
| CAAACCAGAGGAUAUGCGCAUAGAUCAGACUUUGUUUCUUAACAUGAGGAUCACCCAUGUAGAAGGCUGUAAAC [Ex2 #74] (Eterna round: R97, puzzle: Exclusion 2) | – | 12.3 | 13.3 | – | – | – |
| CAAAGAACAUGAGGAUCACCCAUGUGAACCUUCGUUCGACCUCAGGAUAUCCGCCACCGUCCGCAGGAGAAGGGAGGGAAAAUA [Isinar] (Eterna round: R96, puzzle: Exclusion NG 3) | 64.9 | 138 | 72.8 | – | – | – |
| CAAAGAUAAGGAUAUUGAAGGUUCGACAUGAGGAUCACCCAUGUUAUGUUGGAAAAGGGACAAGAAGGUAUGAAAA [salish99_ex5_r4_214] (Eterna round: R97, puzzle: Exclusion 5) | – | 31.5 | 39.3 | – | – | – |
| CAAAGUUGGUAAGGAUAUCCCACAUUAUUCUGACCCGUGCAAGCUACAUGAGGAUCACCCAUGUGGGAGAAGGUGCGUUAAAGU [Design 2] (Eterna round: R96, puzzle: Exclusion NG 2) | 164 | 261 | 196 | – | – | – |
| CAACGUGAGCAGGAUAUACAGAGGGAGACCUGGGUAGAAGGGCUCACAUGAGGAUCACCCAUGUUAGCCAAAGA [Eternabot (Original) Solution 47] (Eterna round: R97, puzzle: Exclusion 6) | – | 33.3 | 18.8 | – | – | – |
| CAAGAUUACUGAGGAUAUCCUAGUUUAUUUCAGGGAGAAGGCGGACUCAACAUGAGGAUCACCCAUGUAAGACGGGUACUAGAG [Ex NG1 #16] (Eterna round: R96, puzzle: Exclusion NG 1) | 71.1 | 94.7 | 78.4 | – | – | – |
| CAAUAACAAGCAGGAUCCUACAUGAGGAUCACCCAUGUGCUCGUCUUAUAAAGUACUAUCACGAAAGUGAUAGUACA [Mat - Sensor v3 - turn-off var 1 - Eli Mod - D71] (puzzle: Sensor v3, turn-off variant 1) | – | – | – | 190 | 58.6 | 396 |
| CAAUGCGGAGGAUAUACAUUUAUGACUGCCACAGUACCGAGACAUGAGGAUCACCCAUGUAGAAGGCCGAUUAA [EX2 B.9] (Eterna round: R97, puzzle: Exclusion 2) | – | 20.4 | 16.7 | – | – | – |
| CAAUUCCGAGGAUAUACAUGAGGAUCACCCAUGUCGGGCCUCAGCGUUUAGCGCGUAAGUAGAAGGUGGGUUUC [JL Riri mod 6] (puzzle: Exclusion 3) | – | – | – | – | 29.5 | – |
| CAAUUGGGAGGAUAUACAUGAGGAUCACCCAUGUCGAUCCCAGGUAAGUUAAUACUUCGUAGAAGGCCUAUCUC [Eternabot (L2) Solution 16] (Eterna round: R97, puzzle: Exclusion 3) | – | 20.6 | 17.6 | – | – | – |
| CACAAGCUUUUUUGAUGCAUUUUAGUUGGUGUGCUUUUUACAUGAGGAUCACCCAUGUUUAUGAAGCUCGAUCUUUU [JR_SV3TOV2_Sub080] (puzzle: Sensor v3, turn-off variant 2) | – | – | – | 14 | 15 | 12.8 |
| CACCGUAACAGAGGAUAUGAUACAUGAGGAUCACCCAUGUAAUAAAUGAGAAUUUCGAAUGUACCUCAGAAGGCUGAAACCGGC [Ostricism 81 - Jieux - Exclusion NG 2] (Eterna round: R96, puzzle: Exclusion NG 2) | 38.5 | 115 | 48 | – | – | – |
| CACCGUAACUGAGGAUAUCAAACAUGAGGAUCACCCAUGUAAUAAAUGAGAAUUUCGAAUGUACCUGAGAAGGCAGAAACCGGC [Ostricism 84 - Jieux - Exclusion NG 2] (Eterna round: R96, puzzle: Exclusion NG 2) | 25.1 | – | – | – | – | – |
| CACCGUUAAGGAGGAUAUCGUACAUGAGGAUCACCCAUGUAAUAAAUGAGAAUUUCGGAUGUAUGCGAGAAGGCCUAAAUCGGC [Ostracism 44 - Jieux - Exclusion NG 2] (Eterna round: R96, puzzle: Exclusion NG 2) | 34.7 | – | – | – | – | – |
| CACCGUUACACAGGAUAUCUUACAUGAGGAUCACCCAUGUAAUAAAUGAGAAUUUCGAAUGUAUUAGAGAAGGGUGGAAUCGGC [Ostracism 67 - Jieux - Exclusion NG 2] (Eterna round: R96, puzzle: Exclusion NG 2) | 29.8 | – | – | – | – | – |
| CACCGUUACAGAGGAUAUGUCACAUGAGGAUCACCCAUGUAAUAAAUGAGAAUUUCGAAUGUAACACAGAAGGCUGGAAUCGGC [Ostricism 76 - Jieux - Exclusion NG 2] (Eterna round: R96, puzzle: Exclusion NG 2) | 18.1 | 37.1 | 26.5 | – | – | – |
